The source of these data is PMC13345634, “Dynamic assembly of malate dehydrogenase–citrate synthase multienzyme complex in the mitochondria” (eLife, 2026).

For assay [1], the target named is T1, recombinant CIT1 (without the mitochondrial targeting signal, C-terminal 6x His tag) (S. cerevisiae, UniProt P00890 38-479).
T1 construct: By the primers and the NdeI/XhoI sites of pET21b the chain should begin with an added Met and carry LE before the His6; also called recombinant yeast CIT1; pET-cit1; source: E. coli BL21 (DE3), pET21b, purified (Ni-NTA His SpinTrap columns)
T1 sequence (looked up): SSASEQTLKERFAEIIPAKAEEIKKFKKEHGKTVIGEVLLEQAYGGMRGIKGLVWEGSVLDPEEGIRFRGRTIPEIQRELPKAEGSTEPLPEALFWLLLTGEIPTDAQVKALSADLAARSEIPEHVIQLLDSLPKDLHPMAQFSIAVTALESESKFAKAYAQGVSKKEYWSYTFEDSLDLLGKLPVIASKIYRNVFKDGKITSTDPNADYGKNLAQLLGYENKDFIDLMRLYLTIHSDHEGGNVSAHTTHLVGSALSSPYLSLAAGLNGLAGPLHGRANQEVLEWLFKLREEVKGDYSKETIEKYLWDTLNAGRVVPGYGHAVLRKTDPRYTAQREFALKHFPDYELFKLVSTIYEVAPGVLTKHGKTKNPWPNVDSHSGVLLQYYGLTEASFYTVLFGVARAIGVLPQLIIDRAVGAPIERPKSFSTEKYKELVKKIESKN
Briefly: MST; fluorescently labeled MDH1 as the target, CIT1 as the ligand (two-fold serial dilution of 80 µM, 16 concentrations); Monolith NT.115, room temperature; 50 mM Tris, 150 mM NaCl, 10 mM MgCl2, 5 mM DTT, 0.05% Tween-20; pH 6.4. The following applies: both partners purified.

Assay [2] addresses T1, recombinant CIT1 (without the …). Briefly: MST; fluorescently labeled MDH1 as the target, CIT1 as the ligand (two-fold serial dilution of 80 µM, 16 concentrations); Monolith NT.115, room temperature; 50 mM Tris, 150 mM NaCl, 10 mM MgCl2, 5 mM DTT, 0.05% Tween-20; pH 7.2. The following applies: both partners purified.
Assay [3] has the same target. Briefly: MST; fluorescently labeled MDH1 as the target, CIT1 as the ligand (two-fold serial dilution of 80 µM, 16 concentrations); Monolith NT.115, room temperature; 50 mM Tris, 150 mM NaCl, 10 mM MgCl2, 5 mM DTT, 0.05% Tween-20; pH 6.0. The settings on record: both partners purified.
The target of assay [4] is T2, recombinant MDH1 (without the mitochondrial targeting signal, C-terminal 6x His tag), fluorescently labeled (S. cerevisiae, UniProt P17505 18-334, fluorescent label (Protein Labeling Kit RED-NHS 2nd Generation)).
T2 chain: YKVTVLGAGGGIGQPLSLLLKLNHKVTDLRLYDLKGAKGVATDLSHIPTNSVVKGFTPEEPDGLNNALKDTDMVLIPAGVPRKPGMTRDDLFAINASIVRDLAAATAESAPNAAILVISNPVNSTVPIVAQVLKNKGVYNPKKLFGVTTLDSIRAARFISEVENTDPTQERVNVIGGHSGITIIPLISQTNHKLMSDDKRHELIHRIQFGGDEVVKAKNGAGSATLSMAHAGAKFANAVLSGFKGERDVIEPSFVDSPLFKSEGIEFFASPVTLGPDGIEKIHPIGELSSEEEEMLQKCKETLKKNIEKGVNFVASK
Description: MST; 10 mM fumarate.

Assay [5] concerns the target T2, recombinant MDH1 (without the …). Briefly: MST; control (no metabolite).
Assay [6] shares this target. Briefly: MST; pH 6.8.
Assay [7] shares this target. Description: MST; 10 mM malate.

B1: recombinant MDH1 (without the mitochondrial targeting signal, C-terminal 6x His tag), fluorescently labeled (enzyme, S. cerevisiae, UniProt P17505 18-334, looked up)
chain: YKVTVLGAGGGIGQPLSLLLKLNHKVTDLRLYDLKGAKGVATDLSHIPTNSVVKGFTPEEPDGLNNALKDTDMVLIPAGVPRKPGMTRDDLFAINASIVRDLAAATAESAPNAAILVISNPVNSTVPIVAQVLKNKGVYNPKKLFGVTTLDSIRAARFISEVENTDPTQERVNVIGGHSGITIIPLISQTNHKLMSDDKRHELIHRIQFGGDEVVKAKNGAGSATLSMAHAGAKFANAVLSGFKGERDVIEPSFVDSPLFKSEGIEFFASPVTLGPDGIEKIHPIGELSSEEEEMLQKCKETLKKNIEKGVNFVASK
modifications: fluorescent label (Protein Labeling Kit RED-NHS 2nd Generation)
notes: By the primers and the NdeI/XhoI sites of pET21b the chain should begin with an added Met and carry LE before the His6; also called recombinant yeast MDH1; labeled MDH1; source: E. coli BL21 (DE3), pET21b, purified (Ni-NTA His SpinTrap columns)
The term Kd denotes the equilibrium constant for the complex coming apart. B1: the Kd was 223 nM in assay [1], 3480 nM in assay [2] and 33 nM in assay [3].

B2: recombinant CIT1 (without the mitochondrial targeting signal, C-terminal 6x His tag) (enzyme)
chain: SSASEQTLKERFAEIIPAKAEEIKKFKKEHGKTVIGEVLLEQAYGGMRGIKGLVWEGSVLDPEEGIRFRGRTIPEIQRELPKAEGSTEPLPEALFWLLLTGEIPTDAQVKALSADLAARSEIPEHVIQLLDSLPKDLHPMAQFSIAVTALESESKFAKAYAQGVSKKEYWSYTFEDSLDLLGKLPVIASKIYRNVFKDGKITSTDPNADYGKNLAQLLGYENKDFIDLMRLYLTIHSDHEGGNVSAHTTHLVGSALSSPYLSLAAGLNGLAGPLHGRANQEVLEWLFKLREEVKGDYSKETIEKYLWDTLNAGRVVPGYGHAVLRKTDPRYTAQREFALKHFPDYELFKLVSTIYEVAPGVLTKHGKTKNPWPNVDSHSGVLLQYYGLTEASFYTVLFGVARAIGVLPQLIIDRAVGAPIERPKSFSTEKYKELVKKIESKN
For B2, the Kd came out at 288 nM in assay [4], 6070 nM in assay [5], 2720 nM in assay [6] and 367 nM in assay [7].
